In patent US20170114420, “[…] WITH BINDING AFFINITY TO NOROVIRUS” (North Carolina State University, published 2017):

Columns and labels:
[1] = molecular target: T1, Norovirus GII.2 (Snow Mountain virus) VLP, capsid protein VP1 (Snow Mountain virus (Norovirus GII.2), UniProt Q80RD6 Q80RD6:1-542); assay: ELONA; ELASA, RT, 3 ug/ml VLP; T/N 12.4 at 1 uM (Table 5); settings: chain copies: 180, label: 5' biotin
[2] = molecular target: T1, Norovirus GII.2 (Snow Mountain virus) …; assay: ELONA; ELASA, RT, 3 ug/ml VLP; T/N 4.1 at 1 uM (Table 5); settings: chain copies: 180, label: 5' biotin
[3] = molecular target: T1, Norovirus GII.2 (Snow Mountain virus) …; assay: ELONA; ELASA, RT, 3 ug/ml VLP; T/N 18.1 at 1 uM (Table 5); settings: chain copies: 180, label: 5' biotin
[4] = molecular target: T1, Norovirus GII.2 (Snow Mountain virus) …; assay: ELONA; settings: chain copies: 180
[5] = molecular target: Norovirus GI.1 (Norwalk) VLP, capsid protein VP1 (Norwalk virus (Norovirus GI.1), UniProt Q83884 Q83884:1-530); assay: ELONA; 1 uM aptamer, RT; <2 is negative; settings: label: 5' biotin
[6] = molecular target: T1, Norovirus GII.2 (Snow Mountain virus) …; assay: ELONA; ELASA, RT, 3 ug/ml VLP; T/N 12.9 at 1 uM (Table 5); settings: chain copies: 180, label: 5' biotin

B1: SMV-25 (ssDNA)
DNA: AGTATACGTATTACCTGCAGCCATCTGTGTGAAGACTATATGGCGCTCACATATTTCTTTCCGATATCTCGGAGATCTTGC
Question: Which Kd [1] does the source give for B1 here?
Answer: Its Kd is ~232 nM.

B2: SMV-26 (ssDNA)
DNA: AGTATACGTATTACCTGCAGCTGACCGAGTGTCTGGTCATTTTCGATGTCTGTTGTTAGGCCGATATCTCGGAGATCTTGC
Question: Which Kd [2] does the source give for B2 here?
Answer: Its Kd is ~281 nM.

B3: SMV-21 (ssDNA)
DNA: AGTATACGTATTACCTGCAGCCCATGTTTTGTAGGTGTAATAGGTCATGTTAGGGTTTCTGCGATATCTCGGAGATCTTGC
Question: Which Kd [3] does the source give for B3 here?
Answer: The Kd was ~101 nM.

B4: M1 (ssDNA)
DNA: AGTATACGTATTACCTGCAGCTGTTTATGGGGATAAACGTATCTAATTCGTGTACTAATCACGATATCTCGGAGATCTTGC
Question: With B4 as the binder, how does the binding signal [4] read?
Answer: The binding signal was 10.7 VLP/no VLP ratio.

B5: M6-2 (ssDNA)
DNA: AGTATACGTATTACCTGCAGCTGGGAAGAGGTCCGGTAAATGCAGGGTCAGCCCGGAGAGCGATATCTCGGAGATCTTGC
Question: How did the binding signal [4] turn out when B5 was run?
Answer: The binding signal was 12 VLP/no VLP ratio.

B6: SMV-19 (ssDNA)
DNA: AGTATACGTATTACCTGCAGCCACCAGTGTGTTGAGGTTTGAGCACACTGATAGAGTGTCACGATATCTCGGAGATCTTGC
Question: Does B6 bind [5]?
Answer: Result: binds

Question: What about the Kd [6] of the same binder?
Answer: Its Kd is ~191 nM.
